Measured values reported in PMC3300031 (Nucleic Acids Research, 2011).

Key:
AUC + SEC = target: the molecule itself; assay: AUC + SEC
SEC = target: the molecule itself; assay: SEC

| Protein | stoichiometry N (AUC + SEC) | stoichiometry N (SEC) |
| --- | --- | --- |
| Pyrococcus furiosus NurA (Pf NurA), wild type (enzyme, UniProt Q8U1N8 1-451, looked up) MRLLSKQSIERITKILLDELENVRENEQIRNIINSWKPLPSPEKSSIYAVDGSRSVSRLSGTVIYFLSALAVGSGKQLRLSYANAIKSNYGTSDQIVRMQMETLENMLGYLAYRKLEGEKRAILMDGTLTGSLVRPPVYPEDIRSLNVMRALIGESDFENLLNEFLEKLRDHYRKVEEHLEKNGNYDSPILTDNVVEKLRKKYIDTKVIAYGSGKVKVKIPRKALGYSPRVIPIEVLESSRGKSVDELLQELDEEKVELYLGKDDIYDALHMTLSYIEYLYSIDKLLEVKNLAYIAKSFYTKTLARTLGVEIVDTALLDAVIRTLIGHEKEGYLEIEHAVVPPKWSFPDFLLSKFRNIEKLIDKGIHLAYVRFEQGDVIYMLQSTTNIEKILPLILHHKAGGYLRPLQLAHHGVKISYKEARHTLEALINALRNRDPALKIFVKYGRSPLE | 2 | – |
| Pf NurA R11A/I12E/S60Y dimeric interface mutant (enzyme, Pyrococcus furiosus) MRLLSKQSIEAETKILLDELENVRENEQIRNIINSWKPLPSPEKSSIYAVDGSRSVSRLYGTVIYFLSALAVGSGKQLRLSYANAIKSNYGTSDQIVRMQMETLENMLGYLAYRKLEGEKRAILMDGTLTGSLVRPPVYPEDIRSLNVMRALIGESDFENLLNEFLEKLRDHYRKVEEHLEKNGNYDSPILTDNVVEKLRKKYIDTKVIAYGSGKVKVKIPRKALGYSPRVIPIEVLESSRGKSVDELLQELDEEKVELYLGKDDIYDALHMTLSYIEYLYSIDKLLEVKNLAYIAKSFYTKTLARTLGVEIVDTALLDAVIRTLIGHEKEGYLEIEHAVVPPKWSFPDFLLSKFRNIEKLIDKGIHLAYVRFEQGDVIYMLQSTTNIEKILPLILHHKAGGYLRPLQLAHHGVKISYKEARHTLEALINALRNRDPALKIFVKYGRSPLE | – | ~2 |
| Pf NurA ΔN26 dimeric interface mutant (first 26 residues deleted) (domain or fragment, Pyrococcus furiosus, UniProt Q8U1N8 27-451, looked up) EQIRNIINSWKPLPSPEKSSIYAVDGSRSVSRLSGTVIYFLSALAVGSGKQLRLSYANAIKSNYGTSDQIVRMQMETLENMLGYLAYRKLEGEKRAILMDGTLTGSLVRPPVYPEDIRSLNVMRALIGESDFENLLNEFLEKLRDHYRKVEEHLEKNGNYDSPILTDNVVEKLRKKYIDTKVIAYGSGKVKVKIPRKALGYSPRVIPIEVLESSRGKSVDELLQELDEEKVELYLGKDDIYDALHMTLSYIEYLYSIDKLLEVKNLAYIAKSFYTKTLARTLGVEIVDTALLDAVIRTLIGHEKEGYLEIEHAVVPPKWSFPDFLLSKFRNIEKLIDKGIHLAYVRFEQGDVIYMLQSTTNIEKILPLILHHKAGGYLRPLQLAHHGVKISYKEARHTLEALINALRNRDPALKIFVKYGRSPLE | – | 4 |
